The record followed here is the DeepSol protein solubility set.

This data set is described as follows: soluble on expression in E. coli; label from the status in PepcDB or PDB records.
“MGSSHHHHHHSSGLVPRGSHMGVKSLVPQELIEKIKLISPGTELRKALDDIINANFGALIFLVDDPKKYEDVIQGGFWLDTDFSAEKLYELSKMDGAIVLSEDITKIYYANVHLVPDPTIPTGETGTRHRTAERLAKQTGKVVIAVSRRRNIISLYYKNYKYVVNQVDFLISKVTQAISTLEKYKDNFNKLLSELEVLELENRVTLADVVRTLAKGFELLRIVEEIRPYIVELGEEGRLARMQLRELTEDVDDLLVLLIMDYSSEEVEEETAQNILQDFITRREPSPISISRVLGYDVQQAAQLDDVLVSARGYRLLKTVARIPLSIGYNVVRMFKTLDQISKASVEDLKKVEGIGEKRARAISESISSLKHRKTSE”: the “soluble on expression in E. coli” value is “soluble”.

In the case of “SLTPLRVLIVEDDPRIAQLHQRFCEKVAGFEVSGLAATYEEADELATILEPDLLLLDLYLPDGNGMDLLRQLRSRGQEVDVVLITAAKDVAAVQQALRAGAFDYIVKPAVFARFEEALTKFAAYRQQLEQGDVLNQNDIDQLLHSHHQPKVMDRGAVPKGIDPLTLTKIRQVFADQEQQGLSAEEVGAQIGASRSTARRYLEYMVSISELTADVVYGTVGRPERRYFSFENEG”, the “soluble on expression in E. coli” value is “soluble”.

In the case of “MRGPVKIVATVGPSSSSASILAQMLSLGVDVARINASHGGVEQWNSMLESLRRAEEAVGKRVGVAVDLEGPRVRTGNSEPVKLEKGDLVTLGFMEGDVPVDARQFFETIDEGDIVLLDDGKIILQVESVEGFRVKARVLEGGVLGPRKGVVVRGKEPDLPPLSAKDRRALEFFADKGVSHVYVSFARSAEHVEKVRTVVRRLGLRQARIFAKIEGPSGVSRIGEIAEASDGVIIARGDLGMHYSLEELPEIQELIVWEARKRYKTVVLATEFLSSMIEKPVPTRSEVVDIYQAVLQTADALMLTGETAIGKYPVKSVQWMAKISSRAYKKLATSPPERPRPTSTPYKLALGLVELAESLDSPLVVYSKTGRFAERLASFKPLKTFYVGVPSREVERVVRHLWGAEPIVVGDYPYEAGLAKTYEKLRRENIIHGDETVVEAAWSSERGIYIIRVRNLEF”, the “soluble on expression in E. coli” value is “soluble”. For “AIALVEDSGHHLPESADIENALDLLLKAQLERAFGPELAEHFWAARQPRTLDERLAFIRKCWIGVFKDSPLSTFGLERLEQLERLCRSKRRGRELSAAEHHQFAEELARLWEQVQRLLPRAAPETSYASSASAGGVHSGDAHTPATLSDAESAHAAPEAMRIEAPATSARSASGCMARVSSDVAAAATNVSLVVLDGENIAWAHGQNAVFSPKGIAIAVDFFRKRGYRCVVFLPDYRRKRADLPTVSASDALVFVPAGEYDDTFALGYAVGHDAILVTNDLLQDHLDQFYPDEGEAREALRKWLGSHRCSFTFVGDEFLPNPHFFLP” the value was “soluble”; for “MGSDKIHHHHHHMAETFPLLAAQPIYDNKNRFYAVELLYRSALNLTAETVGDTAATSEVVFNLCAGITSQTEHYDATAFINVSSEFLVSQSFLPLEPDKVVIELVERIKPTRAVVNAVARWYEKGFRFALDDFEFDPAWEPLLQYASYIKVDVSTLTLAQARVFKQKLSGFKGKWLAERVEDEATKQAYEELGFELFQGYYFAKPAIVYGTRLEPSSLQLAKVLSLCFEEEPDLTELSRVISEDPQLSVCLLKIVNSPLYPTASPITRVKDVIMRLGIEKLRRWIALIGAVTASSPEASRMVLVRAQMCYELAKWKSSPGLDADQCYFVGLLSGVDIMLGVDKASFFEKLPLSEQTRKAVEDCDGPMGQCLRIALKLERLVRMKEGLDKVDSRLLTTYQSVSTKVQELFNTI”, “not soluble”. For “MAHHHHHHMGGAHNEGVQDGGAQDATTLYDELYLLFDEYIVRNCKQPNTYESLFCKKEFVQFAKLHGTSVVVTSPKKEIKNKDEIIDELIYAFKLFAKYTSMCDFFSKNEEVDDINTIYLKFLLIPYILGVLCYETISMEIRSDRLKEAKLYFGEFINVVNVYKIAPVEDYLLDEGGEVNQAMNRRNIKVKRAKDEKKLQDFYDDMIKMNVKKGSSQNYNHLCFADHMEEEQIREIYLSLIKCKCLQTLNMMDLIDTEIEVLEMRNRQQVQDKQHQNGKPTQGTKDTHDGQPPHQNKHPKDGIKKPWLFTIKKNMPLADMTQMRNYYRDLVFTPAHNLPTISLEECAKIEMEYALKGEGMAPRSEEERRGNPKSGTIKGAAQNGTDDEEDYEKSSKEESEKELMDREWDDWKDMHQKGIGNKNRNVA” the value was “soluble”. Regarding “MSLDAKLRYKAKKIKIVFFDIDDTLRNSKTGFIPTTIPTVFKQLREKGILTGIASGRGIFGVVPEIRDLKPDFFVTLNGAYIEDKKGQVIYQHQIEKSDVEEYISWAKQEGIEYGLVGSHDAKLSTRTDMMSEAINPIYPDLDVDPGFHEKEDIYQMWTFEDKGDDLHLPDSLSDKLRMVRWHQHSSDIVPISGSKATGVEKVVEHLGLKPEKVMVFGDGLNDLELFDYAGISVAMGISHDKIKEKADYITKTLEEDGIFDALEVFGMVEKELHFPQVDIETVEGPLATIKTNHGDLRIKLFPEHAPKTVANFVSLSKDGYYDGVIFHRIIKDFMIQGGDPTGTGMGGESIYGESFEDEFSEELYNIRGALSMANAGPNTNGSQFFIVQNQHLPYSKKEITRGGWPEPIAEIYANQGGTPHLDRRHTVFGQLADEASYAVLDVIAAVETGAMDKPVEDVVIETIEIEDEGHHHHHH”, the “soluble on expression in E. coli” value is on record as “soluble”.

Regarding “MTYTVGMYLAERLVQIGLKHHFAVAGDYNLVLLDQLLLNKDMKQIYCCNELNCGFSAEGYARSNGAAAAVVTFSVGAISAMNALGGAYAENLPVILISGAPNSNDQGTGHILHHTIGKTDYSYQLEMARQVTCAAESITDAHSAPAKIDHVIRTALRERKPAYLDIACNIASEPCVRPGPVSSLLSEPEIDHTSLKAAVDATVALLEKSASPVMLLGSKLRAANALAATETLADKLQCAVTIMAAAKGFFPEDHAGFRGLYWGEVSNPGVQELVETSDALLCIAPVFNDYSTVGWSAWPKGPNVILAEPDRVTVDGRAYDGFTLRAFLQALAEKAPARPASAQKSSVPTCSLTATSDEAGLTNDEIVRHINALLTSNTTLVAETGDSWFNAMRMTLPRGARVELEMQWGHIGWSVPSAFGNAMGSQDRQHVVMVGDGSFQLTAQEVAQMVRYELPVIIFLINNRGYVIEIAIHDGPYNYIKNWDYAGLMEVFNAGEGHGLGLKATTPKELTEAIARAKANTRGPTLIECQIDRTDCTDMLVQWGRKVASTNARKTTLALEHHHHHH”, the “soluble on expression in E. coli” value is “soluble”. Turning to “YLASDGKTIILVGKNNLQNDELTFKMSKKGELWFHAKDIPGSHVLIKDNLNPSDEIKTDAAELAAYFSKARLSNLVQVDMIEAKKLNK”, the “soluble on expression in E. coli” value is recorded as “not soluble”. As for “MDGHAPTFTSIQDIQGEGASSPFIDGYPYITTEEHFVTGVVSAVTSGLTKGFYLQAIENDNNDKTSEGLFIHTNAADTELKPGDVVCVKGKVQEYYNNTQLSSDATSYVKTGTSDIPLVTPLVIKEGETLRDALERHEGMQVTLNSASDLFVTRNFSYDYDSKRNNMMLSHQAPLFKPTQLHAADSAEAVALAKQNAENRVFLESDAKAPNGKIPYYPEFGQDLDQDGSSEQHIRLGSRVEGLQGVVNYSYNEYRLIATNDVNNTNFVAAGDGFDVERKAAPAIAESDLRVASFNVLNYFTSVALEHHHHHH”, the “soluble on expression in E. coli” value was “not soluble”. For the sequence “PEGSRDILFEECTIKNNIENILRNSYINVGYEEVRSPTLEFYDVYNLENQPISQEKMYKLFDNTGRILVLRPDMTTPIARICATKLKNRVYPLKLSYTGNIYRMNKALNGKISEITQSGIEILGFSSLKADAEVIITAIKAILKTGLKNFKIEIGQVEFFKSIISDTALKEQDTEKLRNFIENKNFSKVEEFILRNSDLIGETSSKVLMNLPNLFGGKEVIEKAEQLTSNKQAIEALKKVRDLYDIVKRAGFGEYILIDLGMVQHINYYTGLIFRGYAHGIGDDLLSGGRYDKLLGQFGYDIPATGLAINVDNLVAALDDCVRENL”, the “soluble on expression in E. coli” value was “not soluble”. For “SPDEQLLKQVSELLQQGEHAQALNVIQTLSDELQSRGDVKLAKADCLLETKQFELAQELLATIPLEYQDNSYKSLIAKLELHQQAAESPELKRLEQELAANPDNFELACELAVQYNQVGRDEEALELLWNILKVNLGAQDGEVKKTFMDILSALGQGNAIASKYRRQLYSILY” the value was “soluble”; for “MSLKIKCILIEDEISNEKELYFILRRYDDIEIVGMVQNTDEGIDLVKKLRPQAVFLDINVPNFNGIKLAEEIKDVDSTIAVIFVTAYDKYAVAAFEIKALDYILKPFSIARIEKAVERLKEYINVNKSMKEKLFELICEFNNMERKYIINKIPCENKGKIVLVDVNDIYFFYIKSEKTYVKLNDIIYVTSSTLNDMEKKTGFFRAHRSYLVNLNKIFEIYSWFNGTYKLIMSDYRKSEIPVSRGNVRKLKEIINIEGHHHHHH”, “not soluble”; for “MLLGYCGSGYYGMQYNPPHKTIEGEILTKLFDVGAISEENSLAPKKNSFMAAARTDKGVHAMLNLLSLKITLREDTVAKLNAALPPEIRVWGIQPVNKKFNARSACDSRWYQYLIPEFILIGPPRSSLLHRNVGGCYREDGSQEVWDTFLEQTRGRFSGDELCRLQDTAQKLSESDPLVQDYVGLLSGTLSGYCLSPSKLDAFEAAMQEYVGTHNFHNFTTGKLWGDPSAQRHIKKVVVSQASPGWICVRIHGQSFMLHQIRRMVALAVLAARCQLPPNIVRNYFNAGPRKYIPRAPAQGLLLEGPVFDGYNTKLRNLLYCEIRPDDITLERMCRFRERQICTAIAHEETQRHVFCHFVRQMNRLATPLI”, “not soluble”.

On to “MGSDKIHHHHHHDPVSDITDLNYWKTPEQFDSFVFGLHSRFRSHSWNMFLLGEARSDVFGGIPFGGEATQGMERFPYNTLNAENPGISGFGDLYQNINQMNLFISRTLHTDVLTESARNYYLGQVYGLRAYYMYQLYRSWGDVVFTEEPSLGFEVGKLAKAATPAAEIFEQVKKDIESSLSYFGSDYTIKEKKSLWSKAATLMLKADVYLWSAHRDGGEGDARTAKNALVDIQNNISRSNLDLMDTYQGVFAYDNKGNKEIIFTIHNELFEYNLWNGNNDLFPQADYLGKFYNADGTLINTSVENNFGIMRLMVKLENFKKFLPGDTRRDVTLKDVYNKVENGKLELVGVYPHKYWGVMNGSTRVRCDDYPIYRYSDLLLMLAEAKVLLGEDPATEINRVRRRAFGDAYDASTVGFPNQEVDKRPADAVLQERLFEFMLEGKRWYDLRRFGDSYVLDYTPAEPARLLWPINQGALTNNPLLKQTVGY”, for which the “soluble on expression in E. coli” value was “not soluble”. For “MGSDKIHHHHHHENLYFQGMNIETLMIKNPPILSKEDRLGSAFKKINEGGIGRIIVANEKIEGLLTTRDLLSTVESYCKDSCSQGDLYHISTTPIIDYMTPNPVTVYNTSDEFTAINIMVTRNFGSLPVVDINDKPVGIVTEREFLLLYKDLDEIFPVKVFMSTKVQTIYKEVRLDQAVKLMLRRGFRRLPVIDDDNKVVGIVTVVNAIKQLAKAVDKLDPDYFYGKVVKDVMVTNLVTIDELASVNRAAAEMIVKRIGSLLILNKDNTIRGIITERDLLIALHHILVMEKFKEKL” the value was “soluble”; for “MPPMAKNAAVTDVVHLDSDSDSDNGVVGGRESASTIAGAATMAPRETLECRSFWKAGDYFVIPNVVTPTAPAIAELLDNAVDEIQNGATFVKIDKINIVKDNSPALVFQDDGGGMDPAGLRKCMSLGYSSKKSNTTIGQYGNGFKTSTMRLGADAIVFSRSTRGGTSTQSVGILSYTFLRKTGQDDVTVPMIRYVMQIDIDISKERPQPIIYGSPEDWAANLEILLKWSPFSTEDELLQQSVLLIFLFPSSTHQFEDVGTHGTKVIIYNLWLNDEGIYELSFDDDEEVTHTFPQLIYTRRDILPEDIRLRDESVNDGKRLHHKILELRSHISYHLRYSLRAYASMLYLKKFKNFKIIIRGIPVEQFNIADGFRFPEIIKYKPHTATTEQASTEIKIGFVKEAPKLAICGFNVYHKNRLIRDTGNNLDGKSAGEIRQENLQLFMRYIYKKRKIRISISYLCGDLNQILFFNRCEEYIKKENETEQTVKSLEKELEEFKSKCAHLALLVDAKKKEMQQA”, “soluble”.
